Experimental data as given in the supplement of paper PMC10567573.

B1: TRIM14 (parent)
chain: REQADSCREQLDIMNDLSNRVWSI
B2: KCNA4 (parent)
chain: YQSGGRLKRPVNVPFDIFTEEVKF

Variants of: B1
Assay: protein stability index of a GFP-peptide fusion (GPS, HEK-293T) (PSI 1-6); higher = more stable
Details: c terminus: a fixed tail appended
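Note: lentivirally expressed fusions sorted by FACS into six bins by GFP to DsRed ratio, PSI derived from sequencing read proportions per bin multiplied by bin number.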

Protein stability index, by site and new letter:
R1: M 2.19; L 2.32; C 2.15; T 2.75; G 1.86; S 3.43; V 2.96; N 2.56; Y 2.11; E 3.17; A 2.81; H 2.29; Q 2.58; W 2.82; P 2.48; D 2.64; K 1.72; I 2.63; F 1.88
Q3: Y 2.23; N 2.13; E 3.01; W 1.88; R 2.42; K 1.59; D 2.8; P 2.15; C 2.08; I 2.04; H 1.87; S 1.77; L 1.68; G 1.82; T 2.11; A 2.48; F 1.82; M 1.75; V 1.24
C7: P 2.74; W 2.23; Y 2.2; G 3.05; T 3.04; F 2.21; K 3; M 2.52; L 2.27; H 3.02; R 3.42; N 3.52; S 3.21; D 3.5; E 3.96; Q 4.24; I 2.12; V 2.76; A 2.86
R8: D 3.4; L 1.89; E 3.19; I 1.79; H 2.61; C 2.3; A 2.47; K 2.29; M 2.17; F 1.6; G 2.68
S6: A 2.45; K 1.78; F 1.91; E 2.77; H 2.41; Y 2.06; R 1.86; Q 2.21; P 2.35; M 1.93; I 2.35; V 1.85; D 3.4; L 1.93; W 2; C 2.01; G 2.42; T 1.6; N 2.68
D5: F 1.55; S 1.6; T 1.99; K 3.1; Y 1.2; V 2.09; G 1.55; C 1.59; L 3.46; A 1.95; E 2.15; W 2.21; P 2.03; M 2.1; R 3.62; H 2.23; N 2.88; I 2.84; Q 2.14
E2: F 2.92; M 2.56; I 1.75; W 1.91; C 1.95; H 1.53; L 1.25; S 1.28; T 2.13; N 2.46; P 2.33; V 1.98; Y 2.83; Q 1.63; K 1.83; G 1.85; R 1.66; A 1.93; D 2.45
A4: H 2; P 1.76; D 2.5; N 2.66; C 1.81; M 3.03; T 2.93; W 2.34; R 2.31; E 2.52; I 2.29; V 2.36; F 1.59; Q 2.25; Y 2.21; G 2.59; S 2.27; K 2.52; L 2.57

Variants of: B2
Assay: as above
Details: c terminus: a fixed tail appended

Protein stability index, by site and new letter:
F24: E 2.32; A 1.78; W 1.92; P 2.25; V 2.49; C 1.93; L 2.05; M 1.63; R 2.59; H 2.16; S 2.79; Y 2.89; K 2.49; T 2.18; N 1.93; Q 2.92; D 2.11; I 1.71; G 2.26
K23: Y 1.52; T 2.36; R 1.96; V 2.42
